In the supplement of paper PMC10065799, “High-throughput profiling of sequence recognition by tyrosine kinases and SH2 domains using bacterial peptide display” (eLife, 2023):

How the values were obtained:
Hck = Hck (UniProt P08631); assay: phosphorylation enrichment, bacterial display (enrichment ratio); higher = better substrate or ligand; peptides without Tyr show the background
EPHB2 = EPHB2 (UniProt P29323); assay: as above
Fer (mouse) = assay: as above
Fyn = Fyn (UniProt P06241); assay: as above
EPHB1 = EPHB1 (UniProt P54762); assay: as above
Fes = Fes (UniProt P07332); assay: as above
AncSZ = assay: as above
FGFR1 = FGFR1 (UniProt P11362); assay: as above
c-Abl (mouse) = assay: as above
FGFR3 = FGFR3 (UniProt P22607); assay: as above
Jak2 = Jak2 (UniProt O60674); assay: as above
c-Src = assay: as above
MERTK = MERTK (UniProt Q12866); assay: as above
c-Src SH2 = assay: SH2 binding enrichment of the phosphorylated peptide, bacterial display (enrichment ratio); higher = better substrate or ligand; peptides without Tyr show the background
SHP2-C SH2 = assay: as above
Grb2 SH2 = Grb2 SH2 (UniProt P62993); assay: as above
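Throughout, for SH2 binding enrichment of the phosphorylated peptide, bacterial display: peptide library displayed on the E. coli surface as eCPX fusions, selected cells deep-sequenced, score is each peptide's frequency after selection divided by its frequency in the input.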
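Throughout, for phosphorylation enrichment, bacterial display: 11-residue human phosphosite peptides and single-mutation variants displayed on the E. coli surface, counted by deep sequencing, each peptide's frequency after selection divided by its frequency in the unselected input library; frequency after pTyr selection over input frequency; kinase dosed for 20-30% of maximal phosphorylation in three min.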

Fes, sequence (P07332 whole entry, looked up): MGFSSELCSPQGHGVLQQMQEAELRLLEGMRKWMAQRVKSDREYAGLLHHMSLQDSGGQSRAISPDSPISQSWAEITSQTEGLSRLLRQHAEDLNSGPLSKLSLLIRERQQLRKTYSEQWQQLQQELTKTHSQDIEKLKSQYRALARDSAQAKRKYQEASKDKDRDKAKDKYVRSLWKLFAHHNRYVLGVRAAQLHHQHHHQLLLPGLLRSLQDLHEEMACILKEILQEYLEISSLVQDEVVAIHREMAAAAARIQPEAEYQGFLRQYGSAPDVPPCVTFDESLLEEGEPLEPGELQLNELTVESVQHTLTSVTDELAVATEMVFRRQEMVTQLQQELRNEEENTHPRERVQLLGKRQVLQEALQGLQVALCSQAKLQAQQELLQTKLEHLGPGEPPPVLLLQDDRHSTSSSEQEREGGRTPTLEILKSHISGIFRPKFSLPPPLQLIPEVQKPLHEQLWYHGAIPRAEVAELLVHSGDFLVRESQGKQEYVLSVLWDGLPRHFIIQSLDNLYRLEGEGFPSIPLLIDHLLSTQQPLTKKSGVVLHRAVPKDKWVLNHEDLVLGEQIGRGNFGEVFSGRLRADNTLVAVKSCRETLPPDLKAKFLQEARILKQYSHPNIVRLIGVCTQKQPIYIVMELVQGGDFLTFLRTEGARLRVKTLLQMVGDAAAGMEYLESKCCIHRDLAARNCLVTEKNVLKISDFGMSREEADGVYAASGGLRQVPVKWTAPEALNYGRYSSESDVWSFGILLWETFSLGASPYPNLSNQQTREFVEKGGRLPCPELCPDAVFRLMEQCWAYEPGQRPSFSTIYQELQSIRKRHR
EPHB2, sequence (P29323 whole entry, looked up): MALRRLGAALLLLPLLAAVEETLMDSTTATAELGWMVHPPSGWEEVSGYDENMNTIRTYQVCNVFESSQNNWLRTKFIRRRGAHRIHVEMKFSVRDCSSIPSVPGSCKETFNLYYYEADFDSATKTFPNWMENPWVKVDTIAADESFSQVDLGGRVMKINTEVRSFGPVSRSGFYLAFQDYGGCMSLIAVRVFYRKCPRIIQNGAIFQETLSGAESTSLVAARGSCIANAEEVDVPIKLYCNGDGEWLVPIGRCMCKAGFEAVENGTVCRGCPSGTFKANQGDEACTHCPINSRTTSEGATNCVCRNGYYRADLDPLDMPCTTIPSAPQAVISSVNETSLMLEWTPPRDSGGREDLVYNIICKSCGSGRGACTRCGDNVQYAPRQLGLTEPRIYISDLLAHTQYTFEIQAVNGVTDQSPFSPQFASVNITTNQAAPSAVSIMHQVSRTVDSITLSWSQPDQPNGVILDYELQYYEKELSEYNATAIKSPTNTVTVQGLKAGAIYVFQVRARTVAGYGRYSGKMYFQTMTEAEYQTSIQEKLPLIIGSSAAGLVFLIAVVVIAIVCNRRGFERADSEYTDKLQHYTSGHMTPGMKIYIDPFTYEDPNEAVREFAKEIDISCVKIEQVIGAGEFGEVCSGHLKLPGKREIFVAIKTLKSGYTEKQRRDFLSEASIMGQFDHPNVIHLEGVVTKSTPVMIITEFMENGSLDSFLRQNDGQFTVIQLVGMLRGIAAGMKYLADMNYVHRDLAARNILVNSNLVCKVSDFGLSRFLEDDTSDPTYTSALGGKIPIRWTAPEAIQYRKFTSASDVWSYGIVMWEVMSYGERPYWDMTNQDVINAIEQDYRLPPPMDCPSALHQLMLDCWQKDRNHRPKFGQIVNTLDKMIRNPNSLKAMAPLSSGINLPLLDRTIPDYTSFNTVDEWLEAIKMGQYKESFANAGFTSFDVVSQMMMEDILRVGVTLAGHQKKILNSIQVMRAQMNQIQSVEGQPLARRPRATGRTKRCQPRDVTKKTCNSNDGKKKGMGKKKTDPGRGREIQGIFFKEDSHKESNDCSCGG
Jak2, sequence (O60674 whole entry, looked up): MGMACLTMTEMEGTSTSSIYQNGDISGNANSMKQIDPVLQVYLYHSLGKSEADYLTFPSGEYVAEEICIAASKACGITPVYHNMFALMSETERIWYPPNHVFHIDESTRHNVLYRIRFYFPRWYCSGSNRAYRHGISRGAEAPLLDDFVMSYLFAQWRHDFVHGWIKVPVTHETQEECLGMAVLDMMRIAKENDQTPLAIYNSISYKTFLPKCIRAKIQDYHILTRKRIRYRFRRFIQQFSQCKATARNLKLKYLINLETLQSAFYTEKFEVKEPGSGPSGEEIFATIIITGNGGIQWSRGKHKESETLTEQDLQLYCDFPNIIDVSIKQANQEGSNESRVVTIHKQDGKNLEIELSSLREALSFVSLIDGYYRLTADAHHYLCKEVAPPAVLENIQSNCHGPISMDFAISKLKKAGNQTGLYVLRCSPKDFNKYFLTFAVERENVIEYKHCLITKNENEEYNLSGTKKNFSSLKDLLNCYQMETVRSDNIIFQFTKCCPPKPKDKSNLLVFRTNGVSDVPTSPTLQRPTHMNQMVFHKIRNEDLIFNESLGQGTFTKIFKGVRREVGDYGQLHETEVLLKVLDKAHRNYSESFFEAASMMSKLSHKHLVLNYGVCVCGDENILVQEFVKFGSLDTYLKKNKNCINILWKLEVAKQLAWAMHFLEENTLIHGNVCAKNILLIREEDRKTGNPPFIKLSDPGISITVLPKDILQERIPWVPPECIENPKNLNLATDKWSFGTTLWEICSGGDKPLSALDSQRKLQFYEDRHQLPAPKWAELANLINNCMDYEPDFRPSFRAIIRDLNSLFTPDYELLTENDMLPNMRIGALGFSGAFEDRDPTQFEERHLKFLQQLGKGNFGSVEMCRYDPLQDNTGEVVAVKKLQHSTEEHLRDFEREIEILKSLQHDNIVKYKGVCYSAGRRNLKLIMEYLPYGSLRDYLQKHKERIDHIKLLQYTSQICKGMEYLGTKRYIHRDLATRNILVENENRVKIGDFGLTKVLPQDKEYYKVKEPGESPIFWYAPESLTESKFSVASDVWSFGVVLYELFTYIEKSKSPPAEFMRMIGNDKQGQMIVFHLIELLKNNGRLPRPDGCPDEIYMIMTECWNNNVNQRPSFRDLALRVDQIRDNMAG
EPHB1, sequence (P54762 whole entry, looked up): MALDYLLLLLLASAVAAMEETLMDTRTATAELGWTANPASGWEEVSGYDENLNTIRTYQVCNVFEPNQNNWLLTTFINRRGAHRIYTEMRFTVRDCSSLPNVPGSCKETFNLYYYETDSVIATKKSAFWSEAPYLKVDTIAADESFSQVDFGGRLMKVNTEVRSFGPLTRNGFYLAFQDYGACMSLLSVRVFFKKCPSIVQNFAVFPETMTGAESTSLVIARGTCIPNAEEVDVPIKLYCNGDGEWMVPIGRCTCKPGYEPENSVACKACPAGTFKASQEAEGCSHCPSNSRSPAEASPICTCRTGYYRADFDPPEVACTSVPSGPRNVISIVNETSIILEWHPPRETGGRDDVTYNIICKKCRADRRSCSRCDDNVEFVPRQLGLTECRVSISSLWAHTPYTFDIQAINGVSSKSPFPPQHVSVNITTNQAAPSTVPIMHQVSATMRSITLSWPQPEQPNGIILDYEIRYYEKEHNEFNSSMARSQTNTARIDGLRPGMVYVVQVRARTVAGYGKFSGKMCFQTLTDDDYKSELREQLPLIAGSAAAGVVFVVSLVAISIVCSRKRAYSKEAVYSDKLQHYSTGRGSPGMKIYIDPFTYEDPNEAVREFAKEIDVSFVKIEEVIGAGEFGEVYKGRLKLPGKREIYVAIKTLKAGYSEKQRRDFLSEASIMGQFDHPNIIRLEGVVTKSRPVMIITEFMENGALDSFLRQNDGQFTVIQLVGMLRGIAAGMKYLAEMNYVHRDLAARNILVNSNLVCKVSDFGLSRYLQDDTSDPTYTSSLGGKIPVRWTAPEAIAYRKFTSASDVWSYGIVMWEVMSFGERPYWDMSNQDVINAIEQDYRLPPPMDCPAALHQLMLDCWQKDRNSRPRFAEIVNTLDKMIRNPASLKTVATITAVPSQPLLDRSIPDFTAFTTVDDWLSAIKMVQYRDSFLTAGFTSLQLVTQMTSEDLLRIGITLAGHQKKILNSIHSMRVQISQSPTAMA
FGFR3, sequence (P22607 whole entry, looked up): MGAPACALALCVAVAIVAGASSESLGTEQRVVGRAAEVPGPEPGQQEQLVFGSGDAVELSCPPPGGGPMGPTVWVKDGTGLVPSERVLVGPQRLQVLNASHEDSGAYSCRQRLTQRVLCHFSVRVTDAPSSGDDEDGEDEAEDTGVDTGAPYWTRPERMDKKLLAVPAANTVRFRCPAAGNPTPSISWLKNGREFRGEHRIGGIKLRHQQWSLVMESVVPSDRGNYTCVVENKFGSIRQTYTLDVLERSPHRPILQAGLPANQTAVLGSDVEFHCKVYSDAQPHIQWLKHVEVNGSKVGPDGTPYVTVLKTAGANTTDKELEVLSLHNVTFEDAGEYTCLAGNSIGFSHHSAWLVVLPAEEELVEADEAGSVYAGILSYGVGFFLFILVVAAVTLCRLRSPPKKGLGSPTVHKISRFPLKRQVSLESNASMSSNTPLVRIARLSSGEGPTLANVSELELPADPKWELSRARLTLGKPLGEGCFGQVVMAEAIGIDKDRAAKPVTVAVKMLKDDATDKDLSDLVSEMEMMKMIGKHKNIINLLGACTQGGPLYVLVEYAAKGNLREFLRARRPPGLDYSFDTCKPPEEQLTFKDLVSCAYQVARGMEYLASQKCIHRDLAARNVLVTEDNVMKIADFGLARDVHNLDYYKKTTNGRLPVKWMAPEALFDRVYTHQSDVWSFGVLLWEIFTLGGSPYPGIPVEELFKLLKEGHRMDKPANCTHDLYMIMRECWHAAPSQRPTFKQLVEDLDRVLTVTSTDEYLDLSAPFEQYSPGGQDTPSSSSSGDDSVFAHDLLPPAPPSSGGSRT
Grb2 SH2, sequence (P62993 whole entry, looked up, the tested form may be a part): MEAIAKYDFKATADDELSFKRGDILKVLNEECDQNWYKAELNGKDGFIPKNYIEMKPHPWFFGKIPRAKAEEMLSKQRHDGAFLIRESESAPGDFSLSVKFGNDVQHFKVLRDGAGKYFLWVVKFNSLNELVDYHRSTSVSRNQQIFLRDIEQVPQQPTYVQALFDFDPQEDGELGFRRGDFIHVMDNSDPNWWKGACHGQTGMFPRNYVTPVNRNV

Row | Sequence | phosphorylation enrichment (Hck) | phosphorylation enrichment (EPHB2) | phosphorylation enrichment (Fer (mouse)) | phosphorylation enrichment (Fyn) | phosphorylation enrichment (EPHB1) | phosphorylation enrichment (Fes) | phosphorylation enrichment (AncSZ) | phosphorylation enrichment (FGFR1) | phosphorylation enrichment (c-Abl (mouse)) | phosphorylation enrichment (FGFR3) | phosphorylation enrichment (Jak2) | phosphorylation enrichment (c-Src) | phosphorylation enrichment (MERTK) | SH2 binding enrichment (c-Src SH2) | SH2 binding enrichment (SHP2-C SH2) | SH2 binding enrichment (Grb2 SH2)
1 | ALAHEYHGGGG [HBB_Y146_K145E] | 0.425 | 0.314 | 0.354 | 0.361 | 0.397 | 0.461 | 0.469 | 0.41 | 0.493 | 0.361 | 0.599 | 0.41 | 0.287 | 0.696 | 0.627 | 0.776
2 | ALAQKYHGGGG [HBB_Y146_H144Q] | 0.368 | 0.366 | 0.296 | 0.335 | 0.372 | 0.491 | 0.492 | 0.348 | 0.592 | 0.497 | 0.462 | 0.404 | 0.363 | 0.506 | 0.743 | 0.782
3 | ALRHFYKLNII [ETV6_Y402_YF] | 0.482 | 0.535 | 0.502 | 0.471 | 0.522 | 1.03 | 0.828 | 0.462 | 0.84 | 0.628 | 0.875 | 0.439 | 0.44 | 1.27 | 2.11 | 1.25
4 | ALTRSYVREKV [CYP2C8_Y243_I244V] | 0.437 | 0.462 | 0.398 | 0.387 | 0.42 | 0.532 | 0.571 | 0.364 | 0.617 | 0.522 | 0.353 | 0.316 | 0.459 | 0.495 | 0.551 | 0.804
5 | ALWYIYSHTRS [ENG_Y614] | 0.523 | 0.768 | 0.572 | 0.47 | 0.679 | 1.33 | 1.1 | 0.487 | 0.807 | 1.03 | 1.14 | 0.423 | 0.418 | 0.451 | 0.711 | 0.931
6 | ANAYIYVVQLP [L1CAM_Y420] | 0.714 | 0.735 | 0.478 | 0.841 | 0.875 | 1.17 | 1.33 | 1.25 | 0.734 | 1.18 | 1.14 | 1.04 | 1.53 | 0.814 | 1.44 | 1.37
7 | ANNPLYKEATS [ITGB3_Y773] | 0.385 | 0.499 | 0.228 | 0.343 | 0.363 | 0.53 | 0.395 | 0.349 | 0.635 | 0.379 | 0.406 | 0.3 | 0.316 | 0.53 | 0.913 | 1.04
8 | APSEFYDGDHD [HDAC3_Y414_N411S] | 0.528 | 0.55 | 0.639 | 0.615 | 0.659 | 1.35 | 1.3 | 0.78 | 0.932 | 0.923 | 1.32 | 0.565 | 0.51 | 0.544 | 0.733 | 1.1
9 | ARGTRYRFVSQ [UCN3_Y95_YF] | 0.546 | 0.41 | 0.492 | 0.52 | 0.416 | 0.548 | 0.597 | 0.483 | 0.63 | 0.535 | 0.742 | 0.607 | 0.48 | 0.458 | 0.407 | 0.627
10 | ARLEFCENEKK [IRS1_Y47_Y47C_YF] | 0.402 | 0.575 | 0.568 | 0.515 | 0.636 | 1.23 | 0.983 | 0.581 | 0.868 | 0.926 | 1.02 | 0.484 | 0.434 | 0.626 | 0.686 | 0.743
11 | ARTNEYKIIRS [INA_Y87_T92S] | 0.316 | 0.372 | 0.33 | 0.406 | 0.394 | 0.563 | 0.435 | 0.282 | 0.337 | 0.406 | 0.454 | 0.407 | 0.407 | 0.514 | 0.859 | 1.06
12 | ASKEPYFVRCI [MYO1D_Y585_YF] | 0.659 | 0.734 | 0.569 | 0.622 | 0.762 | 1.77 | 1.38 | 0.449 | 0.938 | 0.93 | 1.22 | 0.611 | 0.574 | 0.398 | 0.448 | 0.904
13 | ASKEPYYVHCI [MYO1D_Y585_R588H] | 0.554 | 1.21 | 0.506 | 0.482 | 1.96 | 0.974 | 0.953 | 1.89 | 0.627 | 1.36 | 0.755 | 0.576 | 0.636 | 0.685 | 0.889 | 0.924
14 | ASQEEYSAMRD [KRAS_Y64_G60S] | 0.531 | 0.58 | 0.435 | 0.487 | 0.577 | 0.946 | 1.08 | 0.714 | 0.681 | 0.68 | 0.976 | 0.508 | 0.496 | 0.77 | 0.502 | 0.812
15 | ATPSRYMTFLH [DYNC2H1_Y2872] | 0.487 | 0.403 | 0.457 | 0.435 | 0.505 | 0.748 | 0.667 | 0.329 | 0.527 | 0.574 | 0.656 | 0.482 | 0.396 | 1.32 | 8.55 | 0.757
16 | ATQDNYVLEVR [PTPRZ1_Y2179_D2178N] | 0.411 | 0.458 | 0.486 | 0.452 | 0.502 | 1.08 | 0.934 | 0.489 | 0.6 | 0.676 | 0.821 | 0.38 | 0.45 | 0.628 | 0.557 | 0.651
